Data as given in PMC3333781, “Systematic mapping of two component response regulators to gene targets in a model sulfate reducing bacterium”.

How the values were obtained:
Experiment in all cases: EMSA; 10 mM Tris-HCl pH 7.5, 1 mM DTT, 50 mM KCl, 5 mM MgCl2, 25% glycerol, 1 ug/ml poly dI-dC, 50-100 fmol biotinylated DNA, 25-30 C, 20 min
Settings in all cases: protein: recombinant; tags: C-terminal V5-6xHis; chain copies: 2; label: 5'-biotin top strand
[1] = target: T1, DVU2114 response regulator (Desulfovibrio vulgaris Hildenborough, UniProt Q72A83 1-462)
T1 sequence: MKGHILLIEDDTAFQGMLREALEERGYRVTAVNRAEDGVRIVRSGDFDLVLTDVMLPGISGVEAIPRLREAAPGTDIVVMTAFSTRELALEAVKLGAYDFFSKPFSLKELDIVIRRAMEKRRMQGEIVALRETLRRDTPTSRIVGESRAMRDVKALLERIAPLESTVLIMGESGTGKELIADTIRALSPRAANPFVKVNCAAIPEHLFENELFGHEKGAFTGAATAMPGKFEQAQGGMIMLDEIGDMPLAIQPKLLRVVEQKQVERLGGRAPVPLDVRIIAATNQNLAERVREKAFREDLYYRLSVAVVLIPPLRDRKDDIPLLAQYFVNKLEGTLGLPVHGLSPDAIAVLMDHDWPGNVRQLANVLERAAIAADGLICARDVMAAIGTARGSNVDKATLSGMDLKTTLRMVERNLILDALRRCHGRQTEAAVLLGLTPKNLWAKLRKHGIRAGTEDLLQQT

[2] = target: T2, DVU1419 response regulator (Desulfovibrio vulgaris Hildenborough, UniProt Q72C65 1-459)
T2 sequence: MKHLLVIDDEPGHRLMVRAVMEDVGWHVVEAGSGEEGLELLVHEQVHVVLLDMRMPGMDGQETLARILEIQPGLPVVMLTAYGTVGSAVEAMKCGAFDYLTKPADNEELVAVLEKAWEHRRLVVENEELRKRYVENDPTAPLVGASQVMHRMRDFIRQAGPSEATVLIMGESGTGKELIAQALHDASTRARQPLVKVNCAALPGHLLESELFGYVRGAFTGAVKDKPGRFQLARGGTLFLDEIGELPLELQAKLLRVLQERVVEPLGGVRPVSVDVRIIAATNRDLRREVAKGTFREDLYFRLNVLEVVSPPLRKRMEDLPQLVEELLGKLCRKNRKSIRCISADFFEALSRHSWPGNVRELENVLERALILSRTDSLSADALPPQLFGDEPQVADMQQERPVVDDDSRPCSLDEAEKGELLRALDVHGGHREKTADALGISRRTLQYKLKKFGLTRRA

[3] = target: T3, DVU1063 response regulator (Desulfovibrio vulgaris Hildenborough, UniProt Q72D66 1-479)
T3 sequence: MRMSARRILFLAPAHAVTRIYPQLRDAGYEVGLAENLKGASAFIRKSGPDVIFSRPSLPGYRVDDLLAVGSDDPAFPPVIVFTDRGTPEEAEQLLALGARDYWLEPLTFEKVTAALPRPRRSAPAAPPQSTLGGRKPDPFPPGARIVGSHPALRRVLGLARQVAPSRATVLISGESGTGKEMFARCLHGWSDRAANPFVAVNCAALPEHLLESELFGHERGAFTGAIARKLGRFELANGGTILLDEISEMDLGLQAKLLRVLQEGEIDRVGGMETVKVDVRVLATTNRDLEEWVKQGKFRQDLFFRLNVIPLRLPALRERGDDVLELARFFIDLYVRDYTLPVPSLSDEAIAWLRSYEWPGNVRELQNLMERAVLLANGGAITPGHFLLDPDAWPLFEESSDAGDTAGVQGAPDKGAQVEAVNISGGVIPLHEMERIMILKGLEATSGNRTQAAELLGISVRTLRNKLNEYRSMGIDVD

B1: DVU2116 motif mut (dsDNA)
DNA 1: ACCGGGCCACTACACAAATCAATGCTGCCCATCGC
DNA 2: GCGATGGGCAGCATTGATTTGTGTAGTGGCCCGGT
binding result [1]: no binding

B2: DVU1418 motif mut (dsDNA)
DNA 1: GCCGTGGCGTACTATGCCATCGTTTGCTCGTTCATGGTGC
DNA 2: GCACCATGAACGAGCAAACGATGGCATAGTACGCCACGGC
binding result [2]: no binding

B3: DVU1032 motif mut (dsDNA)
DNA 1: GGCATGGTCGGGCACGTGTTTTCGATTGTATCCTG
DNA 2: CAGGATACAATCGAAAACACGTGCCCGACCATGCC
binding result [3]: no binding
